# Measured values: the DeepSol protein solubility set
# Test: soluble on expression in E. coli; label from the status in PepcDB or PDB records
row,Sequence,soluble on expression in E. coli
1,MSLARIKDVAELAGVNRSTVSRIINGEGKFREETRKKVEQAMAQLNYRPSAIARSLATSSSNMVGLLVTYYTGGFFGEMMEQVQTELDIHKKFLITAQGHHSAEGEKEAIQRFNDLRCDGYVLHSRYLSDDDLRELAKLPTPFVLLDRYVEGIEERCITFNHHHASRIAVEHLIAGGHKNIACITGPSLRHNSLLRKLGYVDAMKTAGIDIDESWCEEGNYGRQSGYDAMASILKRHPEVTAVFSCSEEMTVGAMQYLHEHKISVPEQISLTSFDSVDLCESLYPTVSAVHFPISDMARAAVQTLMGLVKKQEHIEKPVFEAKLKLRHADREGHHHHHH,soluble
2,MSLARLQFQLKVDGLEDESLVVRGFEGQESLSDSVWRCEPCYGFRYQVDLASALSNLTAEQFVDQTAHLTILRDGQVVQQINGIVRQLSKGDTGHRHTFYSLTLVPALERLSLRSNSRIFQQQSVPEIISILLQEMGIEDYAFALKRECAQREFCVQYRETDLQFLHRIAAEEGLVYSHLHEAQKHTLLFTDSSDSQPKLAKPVPYNALAGGEINLPYVVDLQFKTTAQVSHTELKDYSFKKPAYGFTQRTQGKDIAYQQPNYEHFDAPGRYKDDANGKAFSQIRLEYLRRDALLADAKSDEPLLLAGVRFDLQDHLDHAMNRDWLVVQANHQGTQPQALQEEGGSGATTYSNQLKLIPAHITWRARPCAKPQVDGPMIATVVGPQGEEIYCDNFGRVKVHFPWDRYSSSNEKSSCWVRVAQEWAGSQYGSMAIPRVGHEVIVSFLNGDPDQPIITGRTYHATNTAPYALPDHKTKTVLRTETHQGQGYNELSFEDQAGSEQILLHAQKDWDALIEHDHTEVIRHDQHLTVDNDRFTRIQRNQHLTVEGEVRSKIALDSSHEVGASLQHKVGQRIAVEAGKEISLKSGAKIVVEAGAELTLKAGGSFVKVDAGGVHLVGPAINLNAGGSAGSGSAYGGQLAAAPRMLAQAKPVAELVQPDIAASMQSGAARVIDVASLPTMMPSSANNTANDEPVAEEKTPERILKSDLLKPSDELEKLAKRQASAYRQGNHSDEVKLLQEALIKLGFDLGKAGADGDFGSKTKTAIEQFQKSYQPSHQTHPSYSIGAVDGIVGKGTLLALDEALMDGWVYENNIYQIWPLGKTSEKYESAGRGPGVISTGNGDYGGASYGCYQMSSNLGVVQKYIQSSKFKEFFSGLNPATKEFNVVWQDIASRYPQEFREEQHQFIKRTHYDIQIGHLRGKGLLFEHNRAAVHDLIWSTSVQFGGRTNLIFNALNGQNMESMTDKDIIILVQDYKLVNTERLFKSSPSWWSDLKKRAVSEKKALLELEIDGLEVDIKEGGSHHHHHH,not soluble
3,MSLASLIGLAVCTGNAFSPALAAEAKQPNLVIIMADDLGYGDLATYGHQIVKTPNIDRLAQEGVKFTDYYAPAPLSSPSRAGLLTGRMPFRTGIRSWIPSGKDVALGRNELTIANLLKAQGYDTAMMGKLHLNAGGDRTDQPQAQDMGFDYSLANTAGFVTDATLDNAKERPRYGMVYPTGWLRNGQPTPRADKMSGEYVSSEVVNWLDNKKDSKPFFLYVAFTEVHSPLASPKKYLDMYSQYMSAYQKQHPDLFYGDWADKPWRGVGEYYANISYLDAQVGKVLDKIKAMGEEDNTIVIFTSDNGPVTREARKVYELNLAGETDGLRGRKDNLWEGGIRVPAIIKYGKHLPQGMVSDTPVYGLDWMPTLAKMMNFKLPTDRTFDGESLVPVLEQKALKREKPLIFGIDMPFQDDPTDEWAIRDGDWKMIIDRNNKPKYLYNLKSDRYETLNLIGKKPDIEKQMYGKFLKYKTDIDNDSLMKARGDKPEAVTWGEGHHHHHH,soluble
4,MSLATESDETSLDFPDHALERVRDILRLRRNFDISSYKDKYLKRRIAIRVRATRSVTADAYCDLVARNERELELLLKGLTIHVSQFFRNSSTFEALRGTVLPAIFDRLRREGRDSATFWSVGCASGEEPYSLAIILRDSFRESLKEFKVSLVATDIDGGILDAARAGIYSPERLAEVPAEVKDRYFRPMGERFVLDPTIREMVDFRRSDLFDPESSVESDLILCRNVLIYFERSEQARILRGFVSSLCTGGVLVLGKAETLVAEVRQRFTTLCPMERIYQKNRFSVYEGHHHHHH,soluble
5,MSLATNKKEIIRLLEEIATYMELKGENSFKISAFRKAAQAIELDSRSLSEIDDFTKISGIGKTTGEIIQRYLDSGECPELEELKKEVPAGLVPLLDVPGLGGKKLSRLYHELGVVDKDTLLQEAENGHIEALKGFGKKSAEKMAEAVREMGERPDRYPLNDVLPIIQKVEAYLAEIAPIETFAQAGSLRRLRETVKDLDYVIATEKPEDVQKALLAFPLITDVIGAGETKVSAVLEDNITISVDFRLVEKKAFATTLHHFTGSKDHNIKMRQLAKQSNEKISEYGVEQEDGTVRHFESEKTFFEHFKIPFLPPEVRRDGTEIERVTKDTKFLELSDIRGDLHMHTTWSDGAYAIPEMIEACIAKGYEYMVITDHGKFLRVANGLDEKRLLEQQAEIKKIAAKYPEIDVYSGVEMDILADGSLDFDDETLKQLDFVIASIHSSFQQSEEEIMKRLKTACENPYVRLIAHPTGRIVVKRKPYHVNMKELIQLAKSTGTALELNANPQRLDLNREHLEMAHAAGVPIAINTDAHDTKHLDFMSIGVRAATKAWLGKSAILNTKTAAEFKQFLQNKEGHHHHHH,soluble
6,MSLATTLVLGGGYAGMRAVKFLQKSLPTEDEIILVDQTPTHTEKTNLHEVAAGTIAPDRITYQIPDIIGKRVQFVQATVKNVDIEQKQVTFEDHPEMTYDYLVLALGFQSETFGVAGADENALPMDDLATSQAVYEHLEERFKAYRTSKDKNDLKIAVCGAGFTGIELLGELTQTLPRLQAKYQTPAAKLVCLERMPSILPMFTQELRDYALKFMEKNNVEMRLGAVIEAIKPGAVVYSDADKNEHEFTANTIIWTVGVSGSHVIADSGFDQRRNRVVVKPDLSLEGHPEVFIVGDVAAVMDPESNRPYPTTAQIALAAGEQAAKNIGALRHNQATATFHYESSGTVASLSDRDGIGEIFSSNKPVHGYAASALKKIITDRSLLESAHLGTVFSKGRFDLYHEGHHHHHH,soluble
7,MSLAWDEGKPRIITLTMNPALDITTSVDVVRPTEKMRCGAPRYDPGGGGINVARIVHVLGGCSTALFPAGGSTGSLLMALLGDAGVPFRVIPIAASTRESFTVNESRTAKQYRFVLPGPSLTVAEQEQCLDELRGAAASAAFVVASGSLPPGVAADYYQRVADICRRSSTPLILDTSGGGLQHISSGVFLLKASVRELRECVGSELLTEPEQLAAAHELIDRGRAEVVVVSLGSQGALLATRHASHRFSSIPMTAVSGVGAGDAMVAAITVGLSRGWSLIKSVRLGNAAGAAMLLTPGTAACNRDDVERFFELAAEPTEVGQDQYVWHPIVNPEASPEGHHHHHH,soluble
8,MSLAYMPMTTVQHIATTNEKQAQKIIAELNAGASFDSQVRKYQNNRQAHTTAGKLAQFDSYNQTLAPAIVQATAKLRVGHYVTKPVKTVMATADTKDKPTYEIINVVSREGHHHHHH,soluble
9,MSLCCISFRVGTGPCVTSGADRLTKGPLRKSAPVSQPEANPKSRSFSGNFLNHTFRRENPMSEITSLVTAEAVKDVLRSEEVRSALKQKLRHNLEARLDAEVDAILDELLGVQAEPPTEAGDTTAESGEVQPESPVADATEPQPESVMMLEGHHHHHH,soluble
10,MSLCEKEINNNNNNNELTEKSKEEIEKDEIEYLEYLKYRKEIIDSHCHIHEDVEHLQESCDLPFKKILLMGTTVEDWDKINQLADKINDDNKIIRCFGIHPWFVYNYLPPTELIGKIKEGDGSNDSIIISIDETWRIKMKELLLKYPNSIVGEIGIDKVTKVRLNGFNKNDQESQMRVFRDQIEIANELDRLVSLHCVQLQGQLLTFFQSLDIDKFPPAIALHTFGGKPATVDQFCKMASGKGDKFYFGLSFINLTFSKVDKLIQAIPDDRLLLESDQNSPTQVDQSLFKLIQKISISKNWTIQKTIEQTTLNTLNFLSKQIKKEGHHHHHH,soluble
11,MSLCGISGLVQLEGVADTSAMRRSVETMVKALAHRGPDDSGVAGDGSAVFGMARLAIRGCHDGRQPMVDAETGVMMVCNGEIDNHAELRGWLAERGRAVEHATDVAVIPGLYLELGDGFVERLVGAFALAVWDPRRGRLLLARDRAGERPLFYACRDGRVSFASQAAALVAGSPEPYPADEAAVQAFLKAGYFEAPASPFAGMRKVLPGERIAIDVKGVERSRYWRLNFTRGPARKNPLDEFDAVFREAVRRQSEVEVDFGAFLSGGVDSSLVTAVMRSVHPDRKLKAFGLRFSESSYDEGVFAERVAESLGVDYTPIWVRPEDFPETLADLVRQSGEPLADPAWVPTALLARRASDEVRVALVGEGADELFGGYPTYFGARLAERYSRLPGGLRALIRKAVEAWPVSDKKVTVSFLLKRFVQGDELDFLARHVLWTSSIPPALLRRLGVTPPETPHVAGPQETMLDRLQQHDLETSLAEGLLTKADRASMRSALELRAPFLDKDVIEFAATLPERERVQGLETKVFLKRVALRYLPKDIVYRKKRGLSVPLSAWLRGPLHDWAEARISSPRLEELGINRAAALELLREHERRSADHARALWTLIVVSEWLEWKAGMEAHEGHHHHHH,soluble
12,MSLDEEKVGTEVPDPEISKMLFSEFCKSDGIGVSDVTKEEEFRYEDAWLTGYTYTQEVSIADLTEIISHSLTIQYGNNRSSVTFTDEIGTERKYTLNEEGYATQCEYASLDQKRQYTFLYTDGYLTQVNEKIMPREGSSDAVVAHTLSLQYDKGDLISTISPSLPYESSTGYGKLQTNYEAGEDINYYRLPCMLVADTYPLSFHREALFAGMLGKPTQHLTTASYPEKTSDTYTERTEYTYSFDKNKKPVSLKVSTKYGNGKSISYLNRTISITIEGHHHHHH,soluble
13,MSLDESKGFIEDSKLSVKTRMLYFSRDFRNNAPGSQSRVEETGLGFLGTFESGFTQGTVGFGVDAIGMLGLKLDSGKGRAGTGLFPTGADGRSQDDYSEGGGAVKMRISNTVLKFGDQFTALPVLATDDSRLLPEVAEGGLITSNEIDDLTVHAGHFTALNAQAQTYHDSLNLTEANVFGGTYAITDSLSTSVYYSRIEDHFRKWYGNINWALPISDKQGLVFDFNIYDTKSIGNNLTGAYVSKSDGTNELDNIAASLSAAYNVGAHTFTLAYQKVSGDGDYAYGVDGGGTVFLANSVARSDFNAEDEKSWQARYDLNFAEFGVPGLTFMTRYVSGTGATTRTTDSGKEWERDIDVKYVMQSGPAKDLSFRVRQATYRSGEGHHHHHH,soluble
14,MSLDEVECSADHIARPILILKETRRLPWATGYAEVINAGKSTHNEDQASCEVLTVKKKAGAVTSTPNRNSSKRRSSLPNGEGLQLKENSESEGVSCHYWSLFDGHAGSGAAVVASRLLQHHITEQLQDIVDILKNSAVLPPTCLGEEPENTPANSRTLTRAASLRGGVGAPGSPSTPPTRFFTEKKIPHECLVIGALESAFKEMDLQIERERSSYNISGGCTALIVICLLGKLYVANAGDSRAIIIRNGEIIPMSSEFTPETERQRLQYLAFMQPHLLGNEFTHLEFPRRVQRKELGKKMLYRDFNMTGWAYKTIEDEDLKFPLIYGEGKKARVMATIGVTRGLGDHDLKVHDSNIYIKPFLSSAPEVRIYDLSKYDHGSDDVLILATDGLWDVLSNEEVAEAITQFLPNCDPDDPHRYTLAAQDLVMRARGVLKDRGWRISNDRLGSGDDISVYVIPLIHGNKLSEGHHHHHH,soluble
15,MSLDEVIIGVCWPFSVNRDGMADGLHLALDEINTRRLAGPYTIRLVERDDEFDSKKHKNIAREFADRADMSAVLGYYDDGPSIRASSIYESSRLLHLMIGANNTDMTSHGFNYINRTILSSDRIALKLAKLTTDLGYRKIVVLWEEDAYGEDLAYQYQVGLDQLNAQVVYQWSYSRKNVDFRLLVNDLKIVDADMIFFSGLEPIAGDFLRMARKVGLKTPVIGAFSNTPEMRAHAGAVGFEGAIMFDFYNPCSQTPENRLFVNKFFSRYGRYPDAWAAQSYDALHILAKAIKFTGSRNPLDLSYAIRYADAFNGANGRYKFDRAGNLEDKPIYLYKIQNGVPVLLEEGHHHHHH,soluble
